# Laboratory results taken from publication PMC3782497, “Unique Structure and Dynamics of the EphA5 Ligand Binding Domain Mediate Its Binding Specificity as Revealed by X-ray Crystallography, NMR and MD Simulations” (PLoS ONE, 2013).
# Bridge positions count the residues as written; N and C are the ends. Square brackets hold non-standard residues; d marks the D form. Primed or numbered codes have the meaning given here. Ends that are not written are not given here. PEG2′ = not defined here
# B1: WDC antagonistic peptide (WDCNGPYCHWLG), bacterially expressed (peptide)
# peptide: WDCNGPYCHWLG
# modifications: disulfide 3-8 (inferred)
# notes: 12-residue peptide previously identified in a phage-display screen on the extracellular domain of rat EphA5; Cloned through BamHI into a modified pGEX-4T-1; also called WDC peptide; recombinant peptide; source: E. coli Rosetta-gami (DE3), GST fusion, released by in-gel thrombin cleavage, HPLC purified
# B2: modified WDC peptide (WDCNGPYCHWLG-(PEG)2-KK), synthetic (peptide)
# peptide: WDCNGPYCHWLG[PEG2′]KK
# modifications: disulfide 3-8
# notes: WDC peptide; two lysines joined to the peptide through (PEG)2, which is not an amino acid linker; also called synthetic WDC peptide; source: synthetic peptide (Anaspec, Inc.)
# Assays:
# [1] = target: human EphA5 ligand-binding domain (LBD), residues 59-235 (human, UniProt P54756 59-235, K232E (from the reverse primer; not stated by the paper) | C233A (from the …, disulfide bridges Cys137-Cys147 and Cys102-Cys220; 15N-labelled for the NMR titration); assay: ITC
# Target sequence in this assay (P54756 59-235 K232E/C233A): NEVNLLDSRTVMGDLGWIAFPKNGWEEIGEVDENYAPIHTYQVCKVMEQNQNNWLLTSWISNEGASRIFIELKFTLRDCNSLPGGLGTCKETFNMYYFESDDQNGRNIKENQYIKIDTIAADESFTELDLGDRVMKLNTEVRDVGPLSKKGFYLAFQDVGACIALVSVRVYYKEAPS
# [2] = target: T1, human EphA5 ligand-binding domain (LBD), residues 59-235 (human, UniProt P54756 59-235, K232E (from the reverse primer; not stated by the paper) | C233A (from the …, disulfide bridges Cys137-Cys147 and Cys102-Cys220; 15N-labelled for the NMR titration); assay: ITC; EphA5 LBD in the cell, bacterially expressed WDC in the syringe; 10 mM phosphate buffer pH 6.3, 25°C; single binding site model; conditions: both partners purified
# T1 construct: Cloned through BamHI into a modified pET32a and released by thrombin, so extra N-terminal residues (probably GS) may remain; also called EphA5 LBD; source: E. coli Rosetta-gami (DE3), purified (Ni-NTA, thrombin cleavage, gel filtration, Mono Q)
# T1 sequence (P54756 59-235 K232E/C233A): as above
# rat EphA5 Fc = target: T2, rat EphA5 Fc (rat, UniProt P54757 27-575); assay: ELISA; rat EphA5 Fc (1 µg/mL) held on Protein A-coated wells; different concentrations of synthetic WDC with 0.6 nM ephrin-A5 AP for 1 hour; bound AP detected with pNPP; IC50 by non linear regression; conditions: both partners purified
# T2 construct: EphA5, rat, Fc fusion; source: bought: R&D Systems
# T2 sequence (P54757 27-575): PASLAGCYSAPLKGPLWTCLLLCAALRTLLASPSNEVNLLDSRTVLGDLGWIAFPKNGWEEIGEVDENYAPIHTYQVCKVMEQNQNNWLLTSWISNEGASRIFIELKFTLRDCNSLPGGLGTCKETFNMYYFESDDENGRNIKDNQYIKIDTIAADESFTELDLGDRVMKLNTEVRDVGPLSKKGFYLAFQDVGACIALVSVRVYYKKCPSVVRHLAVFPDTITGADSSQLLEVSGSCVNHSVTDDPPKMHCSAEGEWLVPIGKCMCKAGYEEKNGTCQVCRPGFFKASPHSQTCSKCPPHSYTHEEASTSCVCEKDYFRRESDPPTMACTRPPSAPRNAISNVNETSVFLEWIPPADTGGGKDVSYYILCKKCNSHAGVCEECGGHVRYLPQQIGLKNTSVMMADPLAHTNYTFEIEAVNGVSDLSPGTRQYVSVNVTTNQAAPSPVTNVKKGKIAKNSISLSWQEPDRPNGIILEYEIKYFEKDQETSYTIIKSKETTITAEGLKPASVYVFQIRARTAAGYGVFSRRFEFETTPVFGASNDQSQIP
Binder,Ka [1],Kd [2],IC50 (rat EphA5 Fc)
B1,161000 M⁻¹,6.2 µM,
B2,,,~50 µM
